Results: the DeepSol protein solubility set

Assay: soluble on expression in E. coli; label from the status in PepcDB or PDB records

Sequence	soluble on expression in E. coli
MSLGMHLPGGIVENVRKRPGMYCGDVGEYGLHHLVYFLLDVAYEEARRGECRDVVLEVGGDGSIALFCTSRTVTAENLVRVATGAGFLGRPPGDGWGWDSMLVVSLALSSRYQVDIWADGRQWRVMGEHGHPQGEGAAVTPMEPMPVSAERGVRVHFVPDATIFEVLAFDRARLSRRCNELAALAPGLRVSFADLQRGERTLWHLPGGVAQWAHVLTEARPQLHPEPVVFDFTWDGLRVQCALQWCEDEDSTLLSFANAVRTVRHGAHVKGVTQALRGALAKLSGETRGAFPWARVAQGLTAIVAVSGPRRQMAFAGPTKELLAIPGLEEAIRKQLQPLFIELLREHPVTPALLARRTSGSEGHHHHHH	soluble
MSLGNPAAMLAAYNTSTQVAPQPQLGPRAGEVQLSSEQQAMIDYVLAGKDVIVDATVGSGKTTAIQRLCSIMGADHDVLYLTYSKLLKVDAQQRVRGAKVQNYHGIVYPHLLKAGIKCGISESIREFNKNFKHISRTFPSYDLLVIDEYQDINEDYAELLRNIKSVNPLMQIVMVGDLEQKVRSDTTLDPQEFAAQLCEDPVFAPFTQSFRIGEAMAAGLADAWNKPIVGANTAQQIEYRSFAEAVVLIQSTEPSKLLCLGSRNGQMSDALNVVERKSPAKFNKKTVFASIRDGDSQIAHPNDAAVFTTFDSSKGLERDTCVVFDYDEEFWDMRLGYPNVDPVVMRNVFLVAASRGKNKVVFVRSDSLQAAYEAGADWAAGLAVGVVDNNTEVAPEVDAHTPAEESKGDVGEVQSQIERMMGFIPVSVFKELPELAPSEYARPISVTEAFDFKYAENVEACFDLLDVKRLDNGKGAAIEVNRSDGLIDLSPTVGNFQEAVFFKDYNVHTALSAYPSQFAKNLKRLVKKNNSVWRNCLIVTAASTEQMRYVDQVRSSIPVAAEKALVSRLSTRLNADSRNQIPLILDGEAVQSKVVRTPMSFAGVADAVHKGVLYELKFVSELTHPMFLQLAMYLVMSGMKDGILWNTRTDEAWQVRVPDPKRFLNAVVLCVSKQDYRVGNFDLPSTGGEGHHHHHH	soluble
MSLGNTTVVTTTVRNATPSLTLDAGTIERFLAHSHRRRYPTRTDVFRPGDPAGTLYYVISGSVSIIAEEDDDRELVLGYFGSGEFVGEMGLFIESDTREVILRTRTQCELAEISYERLQQLFQTSLSPDAPRILYAIGVQLSKRLLDTTRKASRLAFLDVTDRIVRTLHDLSKEPEAMSHPQGTQLRVSRQELARLVGCSREMAGRVLKKLQADGLLHARGKTVVLYGTR	soluble
MSLGPVGMSGGMDINSMVSKIVDAERVPKQQRIDNDRTTINASISAYGRLRESLDTMKNLMANFRQEKAFAVRTVETTDDNIVSATATTDAIAGKYAIDVLQLAQSHK	not soluble
MSLGQKVRGNLIIIGGAEDKVGKKTILKYVADIVREKKGSLVILTTATQKPQEVGNNYRQVFETLGLMDIDVLNINSRDEADLDENAERIRSSGGIFFTGGDQLRITSILGGTKVYKALHEVYSKGVVIVGTSAGASVMSNTMIVEGKDNEPARKCTMKMAPGLGFLEEAIIDQHFDQRGRIGRLLCGVAENPFMLGIGIDEDTAIRVYPDAHFEVLGSNAVTVIDGSTIKSTNVSELNPDEILAISGVTLHVLPCGYGFDMKKKRSEGHHHHHH	soluble
MSLGTGSLGLTFHNFSFGDLFNPSAYHPLPHGDGQTLALQWQFGSNHYRTLSLSASDPWAFGTHTSLGFTAFKTKQTYDLTSSNLSTKTINQYGADITIGRRLTWPDDYFAISWRLGYLHTKGGFVSFLNETNAPEEAEEFSITQTISRNSIDNPIYPRHGSKNVFTAQLAGGVLPGTINFYKLIGKTSWFFPVSHNLVVNVAAQQGYLNTFSKDDYIPYTDYFYMGGSGMSSLPTIPLRGYPDHSLGQQFEGETDLYGGRVYSKFTTEVRYPLTLSSSASIYALAFAEAGNLWASASDFNLTDLKKSAGIGLRLYLPIIGQIGIDYGYGFDSVPSEPGKKPQGWNFTFSFGQPNEGHHHHHH	not soluble
MSLHEAADGILETHVTWKDIEEAMQLSFGTYATFGDNMKATNISDLKGFQSIIALIEPDWIDVEKGKDLPKKFAVKISTQLALAVLSKIMKLGGENGFSEEKLNELGKLIRDGHNREVATYKLLEKMNHPDIPYTKVYGLKGYSDANDLKGFMIMEFIPNVRSIPMYEAILADDLISLVRGIATFAALGETLSEEEKAFAGGPEYLESMFEEVFTDEQLERIY	not soluble
MSLHGRLRDILRLLMAAEAPVTSSFFAAQLNVTTRTVRNDIKELQGVLSGHGAFVQSVRGSGYKLRIDDEQVFRTLLQDEFQQKKGLPVLPEERMAYLMKRLLLADHYLKLDELAEELFISKSTLQTDLKEVKKRLLPYRIVMETRPNYGFKLRGDEVQMRYCMAEYIVDERETEIDVLNEKADILPKEEIEIIRSAILKKMKNDRIPLSNMGLNNLIIHIAIACKRIRTENYVSLFPKDMDHILHQKEYQAAEAIVKELESKLSVTFPKDETAYITMHLLGTKRMTQSQCGEDTFSIEEETDQLTLAMIKAVDRELKLGILHDKELKIGLALHMKPAISRNRYGMNLRNPMLAAIKEHYPLAFEAGIIAGIVIKEQTGIEIHENEIGYLALHFGAAIERKKTESPPKRCIIVCASGAGSAQLLREKLRSHFGKRLDILGTAEYYSLDQMSYESIDFVISTIPIKKELPVPVLKVNTILGGTDFTKIESILSDEKEKANRYLKKELVFFQEDLRSKEEVIQFLGQKVVECGFADEEIIDSIFEREDMSPTCFGNLVAIPHPLVPQTKTTFWAVCTLKKPIDWESQRVQFVCLLCVEKENKADLQSMYKLLGSILDDPAAMNQLIKCRSYQELSDVFDQKMLSEGHHHHHH	soluble
MSLHSLQRKVLRTICPDQKGLIARITNICYKHELNIVQNNEFVDHRTGRFFMRTELEGIFNDSTLLADLDSALPEGSVRELNPAGRRRIVILVTKEAHCLGDLLMKANYGGLDVEIAAVIGNHDTLRSLVERFDIPFELVSHEGLSRNEHDQKMADAIDAYQPDYVVLAKYMRVLTPEFVARFPNKIINIHHSFLPAFIGARPYHQAYERGVKIIGATAHYVNDNLDEGPIIMQDVIHVDHTYTAEDMMRAGRDVEKNVLSRALYKVLAQRVFVYGNRTIILEGHHHHHH	soluble
MSLHWSFPEMIRLFSDEYRSSMLSEGNFGVERESQRVNYSGDLALTPHPSVFGDKFENPRITTDFSESQIEMITPPLKSAEEVYKALNDINNEVKNALKGELLWPLSMPPRLPKEEDIPVAQFPDTEDGRQKQIYRNGLALRYGKKMQMISGIHYNFSFSDKMIDFIYRQLRIEKTKRQFIDEMYFSLTRNFLRYHWILIYLFGASPICDSTYNSVIFKELEKIEKCCPHCAGKIKNFNRYATSLRVSRFGYSDTDEKKYTVYFNSLREYETKIKKMMETESNKYSKLGIYKDGVQIQLNGNLLQSESEFYAPIRFKRNIKKGETQLTALVNRGVEYIEIRILDVNPFDKVGISVEQMNFLQVFNVFCLFEESKSIDEEQMERINTNHQLAALLGRNEDLMLYKYNDDSRIPLKNFGDEIFEKLRIVAKLMDKDNVEKKYSESVESEYKKLHNIELLPSERICREMDNDNRSYIQFGMEYAEAEGHHHHHH	not soluble
MSLIAKVVVDVAAKQTDRIFEYHIPVELEKDIKVGSRVVVPFGPRKIQGFVVGLSEDSEFKGQLKDLLVVVDEMPPLTPELVTLSADLAENIYSYRIKILQAMLPWVMRANYRKLLVPANAQAEKMQFFQGDPIDLNKITDLKDIKKIRKLLRDGDAKIEYVVENKAKKKKENQYELVLESEEYTKIYNTLRQNAVKQKQLLMDIIENEASYPKNQKDFEKKLGLTASVLNTAVKRGWLKRKEVEVYRDPLSGFKDNKKSAPVKLNDEQQFALNQITAAIDKRKAETFLLEGITGSGKTEVYLHAISKALEQGRNALMLVPEISLTPQMVRQVKSRFGQAVAVLHSALSEGEKYDEWRRIRRGETRVVVGARSAVFAPLDNIGLIVIDEEHESSYKQETDPRYNARDVAIWRSKYHHCPLVLGSATPSLGSRARAQKNVYKLLRLTKRANNKKLPKVNLIDLKHVQFAGGQFDLSVNLVDAIKKRLDNKEQVILMLNRRGFANFMLCRECGFVLKCPNCDVSLNLHKDTNSMQCHYCGHTERVPSRCPNCQSSKIRFLGTGTQKVQEELEELLPGARILRMDVDTTRKKGSYKRILDSFGNHEADILLGTQMIAKGLDFPNVTLVGVINADTGLWLSDYNASEKTFELLTQVAGRAGRANKEGEVLIQTYNPEHYAIQLAQTQNYERFYGYEMNVRHAGNYPPYFFTVLISIAAKKEQNAAREAFRIKRYLSQHLHEEMIILGPTPSAISRVKNQYYYQILVKYKKEPNIKELLHHIQDSAQEAKKYGLNVFIDNEPEKIMEGHHHHHH	soluble
